We go through 65 molecules from US20180177842A1 (CANIMGUIDE THERAPEUTICS, published 2018).

For this assay, the target named is T1, P3028 (VFDEFKPLVEEPQNLIK, SEQ ID NO: 185), His-tagged (human).
T1 construct: Synthetic fragment of human serum albumin (positions 397-413); used in solution as His-tagged peptide PGE73; also called PGE73; not shown: His-tag
T1 peptide: VFDEFKPLVEEPQNLIK
Briefly: PEPSCAN ELISA; peptide on chip, His-P3028 added. (In general: An ELISA detects its analyte on a solid surface through an enzyme-linked reagent.)
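Further: peroxidase color development with ABTS and H2O2 substrate, OD405 imaged by CCD camera with image processing and taken as raw values.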

Regarding KKLDTFFVKLSLFTEY [KKLDTFFVKLSLFTEY (SEQ ID NO: 393)], the “RAMPO Score” value was 311 rampo units.
Take KKLDTFFVKLSRFTER [KKLDTFFVKLSRFTER (SEQ ID NO: 356)]: the “RAMPO Score” value is 483 rampo units.
As to KKLDTFFVKLSLQTER [KKLDTFFVKLSLQTER (SEQ ID NO: 370)], the “RAMPO Score” value was determined as 1140 rampo units.
Take KKLDTFGVKLSLFTER [KKLDTFGVKLSLFTER (SEQ ID NO: 96)]: the “RAMPO Score” value was 347 rampo units.
Take KKLDTFFVKLSVFTER [KKLDTFFVKLSVFTER (SEQ ID NO: 359)]: the “RAMPO Score” value was 545 rampo units.
The value for KKLDTFFVKLSLPTER [KKLDTFFVKLSLPTER (SEQ ID NO: 369)] was 696 rampo units; that for KKLDTFFVKTSLFTER [KKLDTFFVKTSLFTER (SEQ ID NO: 342)] was 399 rampo units; that for KKLDTFFVKVSLFTER [KKLDTFFVKVSLFTER (SEQ ID NO: 343)] was 658 rampo units.
In the case of KKLDTFFVKLSLSTER [KKLDTFFVKLSLSTER (SEQ ID NO: 372)], the “RAMPO Score” value was 635 rampo units.
On to KKLDTFFVKLSLFVER [KKLDTFFVKLSLFVER (SEQ ID NO: 385)], for which the “RAMPO Score” value amounted to 380 rampo units.
For the molecule KKLDTFFVKLSLRTER [KKLDTFFVKLSLRTER (SEQ ID NO: 371)], the “RAMPO Score” value was determined as 502 rampo units.
With KKLDTFFVKLSQFTER [KKLDTFFVKLSQFTER (SEQ ID NO: 355)], the “RAMPO Score” value stood at 651 rampo units.
The value for KKLDTFFVKLSLNTER [KKLDTFFVKLSLNTER (SEQ ID NO: 368)] was 862 rampo units; that for KKLDTFPVKLSLFTER [KKLDTFPVKLSLFTER (SEQ ID NO: 437)] was 356 rampo units.
For the molecule KKLDTFFVKYSLFTER [KKLDTFFVKYSLFTER (SEQ ID NO: 344)], the “RAMPO Score” value was 382 rampo units.
As to KKLDTFFVMLSLFTER [KKLDTFFVMLSLFTER (SEQ ID NO: 509)], the “RAMPO Score” value turned out to be 283 rampo units.
Regarding KKLDTFFVKLSWFTER [KKLDTFFVKLSWFTER (SEQ ID NO: 360)], the “RAMPO Score” value came to 409 rampo units.
The value for KKLDTFFVKMSLFTER [KKLDTFFVKMSLFTER (SEQ ID NO: 336)] was 460 rampo units; that for KKLDTFFVKLSLFTLR [KKLDTFFVKLSLFTLR (SEQ ID NO: 525)] was 246 rampo units.
Take KKLDTFLVKLSLFTER [KKLDTFLVKLSLFTER (SEQ ID NO: 320)]: the “RAMPO Score” value was 517 rampo units.
The value for KKLDTFFVTLSLFTER [KKLDTFFVTLSLFTER (SEQ ID NO: 445)] was 347 rampo units; that for KKLDTFFVKWSLFTER [KKLDTFFVKWSLFTER (SEQ ID NO: 482)] was 316 rampo units.
Take KKLDTFFVKLSLITER [KKLDTFFVKLSLITER (SEQ ID NO: 365)]: the “RAMPO Score” value was 468 rampo units.
On to KKLDTFFVKLSLFYER [KKLDTFFVKLSLFYER (SEQ ID NO: 514)], for which the “RAMPO Score” value came to 270 rampo units.
As for KKLDTFFVKLSLHTER [KKLDTFFVKLSLHTER (SEQ ID NO: 364)], the “RAMPO Score” value is 1050 rampo units.
With KKLDTFFVKLSLVTER [KKLDTFFVKLSLVTER (SEQ ID NO: 374)] the figure was 446 rampo units.
Take KKLDTFFVKLSTFTER [KKLDTFFVKLSTFTER (SEQ ID NO: 358)]: the “RAMPO Score” value worked out at 437 rampo units.
For the molecule KKLDTFIVKLSLFTER [KKLDTFIVKLSLFTER (SEQ ID NO: 397)], the “RAMPO Score” value amounted to 446 rampo units.
In the case of KKLDTFFVKLSLFTRR [KKLDTFFVKLSLFTRR (SEQ ID NO: 531)], the “RAMPO Score” value came to 237 rampo units.
Consider KKLDTFMVKLSLFTER [KKLDTFMVKLSLFTER (SEQ ID NO: 321)], for which the “RAMPO Score” value stood at 712 rampo units.
Consider KKLDTFFVKLSLTTER [KKLDTFFVKLSLTTER (SEQ ID NO: 373)], for which the “RAMPO Score” value was 494 rampo units.
The value for KKLDTFFVKLSLLTER [KKLDTFFVKLSLLTER (SEQ ID NO: 366)] was 448 rampo units; that for KKLDTFFVKLSPFTER [KKLDTFFVKLSPFTER (SEQ ID NO: 497)] was 297 rampo units; that for KKLDTFFVKLSYFTER [KKLDTFFVKLSYFTER (SEQ ID NO: 475)] was 320 rampo units.
The value for KKLDTFFVKQSLFTER [KKLDTFFVKQSLFTER (SEQ ID NO: 339)] was 470 rampo units; that for KKLDTFFVRLSLFTER [KKLDTFFVRLSLFTER (SEQ ID NO: 331)] was 374 rampo units.
With KKLDTFFVKLVLFTER [KKLDTFFVKLVLFTER (SEQ ID NO: 419)] the figure was 392 rampo units; with KKLDTFFVKPSLFTER [KKLDTFFVKPSLFTER (SEQ ID NO: 338)], 436 rampo units; with KKLDTFFVKLSLFTPR [KKLDTFFVKLSLFTPR (SEQ ID NO: 439)], 351 rampo units.
As to KKLDTFFVKSSLFTER [KKLDTFFVKSSLFTER (SEQ ID NO: 341)], the “RAMPO Score” value is 351 rampo units.
Regarding KKLDTFFVQLSLFTER [KKLDTFFVQLSLFTER (SEQ ID NO: 469)], the “RAMPO Score” value was 330 rampo units.
The value for KKLDTFFVKLWLFTER [KKLDTFFVKLWLFTER (SEQ ID NO: 472)] was 324 rampo units; that for KKLDTFFVKLSLMTER [KKLDTFFVKLSLMTER (SEQ ID NO: 367)] was 1190 rampo units.
With KKLDTFFVSLSLFTER [KKLDTFFVSLSLFTER (SEQ ID NO: 511)] the figure was 274 rampo units; with KKLDTFFVWLSLFTER [KKLDTFFVWLSLFTER (SEQ ID NO: 526)], 245 rampo units; with KKLDTFFVKLSLFTHR [KKLDTFFVKLSLFTHR (SEQ ID NO: 478)], 318 rampo units.
KKLDTFFVKLSLFTMR [KKLDTFFVKLSLFTMR (SEQ ID NO: 524)]: the “RAMPO Score” value worked out at 247 rampo units.
On to KKLDTFFVKLSSFTER [KKLDTFFVKLSSFTER (SEQ ID NO: 357)], for which the “RAMPO Score” value came to 478 rampo units.
The value for KKLDTFFVKLYLFTER [KKLDTFFVKLYLFTER (SEQ ID NO: 415)] was 402 rampo units; that for KKLDTFFVKLSNFTER [KKLDTFFVKLSNFTER (SEQ ID NO: 354)] was 462 rampo units.
On to KKLDTFFVKLSLWTER [KKLDTFFVKLSLWTER (SEQ ID NO: 375)], for which the “RAMPO Score” value was 430 rampo units.
As for KKLDTFHVKLSLFTER [KKLDTFHVKLSLFTER (SEQ ID NO: 433)], the “RAMPO Score” value was found to be 364 rampo units.
As to KKLDTFFVNLSLFTER (also called 31136) [KKLDTFFVNLSLFTER (SEQ ID NO: 518)], the “RAMPO Score” value was 256 rampo units.
The value for KKLDTFFVKRSLFTER [KKLDTFFVKRSLFTER (SEQ ID NO: 340)] was 439 rampo units; that for KKLDTFFVKLSLFTQR [KKLDTFFVKLSLFTQR (SEQ ID NO: 450)] was 344 rampo units; that for KKLDTFFVKLSLFTKR [KKLDTFFVKLSLFTKR (SEQ ID NO: 471)] was 324 rampo units.
For KKLDTFFVKLSLYTER [KKLDTFFVKLSLYTER (SEQ ID NO: 503)], the “RAMPO Score” value is 291 rampo units.
Regarding KKLDTFNVKLSLFTER [KKLDTFNVKLSLFTER (SEQ ID NO: 443)], the “RAMPO Score” value worked out at 348 rampo units.
For the molecule KKLDTFFVKLTLFTER [KKLDTFFVKLTLFTER (SEQ ID NO: 349)], the “RAMPO Score” value was found to be 520 rampo units.
In the case of KKLDTFFVVLSLFTER [KKLDTFFVVLSLFTER (SEQ ID NO: 523)], the “RAMPO Score” value worked out at 248 rampo units.
As to KKLDTFFVKLSMFTER [KKLDTFFVKLSMFTER (SEQ ID NO: 353)], the “RAMPO Score” value stood at 499 rampo units.
As to KKLDTFFVKNSLFTER [KKLDTFFVKNSLFTER (SEQ ID NO: 337)], the “RAMPO Score” value is 365 rampo units.
With KKLDTFFVKLSLGTER [KKLDTFFVKLSLGTER (SEQ ID NO: 363)], the “RAMPO Score” value stood at 531 rampo units.
As to KKLDTFFVKLSLFTYR [KKLDTFFVKLSLFTYR (SEQ ID NO: 459)], the “RAMPO Score” value stood at 340 rampo units.
For KKLDTFFVKLSLFWER [KKLDTFFVKLSLFWER (SEQ ID NO: 386)], the “RAMPO Score” value was determined as 374 rampo units.
